The values that follow come from paper PMC10628234.

The experiment has as its target Coxiella burnetii Fic enzyme 2 (CbFic2), wild type, untagged (Coxiella burnetii) (UniProt Q83DB6). As to the kind of experiment: crystal structure.

In the case of “Coxiella burnetii Fic enzyme 2 (CbFic2), wild type, untagged (from UniProt Q83DB6 1-378)”, the stoichiometry N (in general, the number of molecules, sites or subunits per partner or assembly) came to 2.
